From publication PMC5854407 (Nature, 2017)
Each block holds one compound with its values, some of them ahead of it.

Columns and labels:
[1] = molecular target: T1, hTRPV6 (Homo sapiens, UniProt Q9H1D0, R510E); assay: Fura-2 AM ratiometric Ca2+ uptake in HEK cells; type: cell-based
T1 sequence (Q9H1D0 41-765 R510E): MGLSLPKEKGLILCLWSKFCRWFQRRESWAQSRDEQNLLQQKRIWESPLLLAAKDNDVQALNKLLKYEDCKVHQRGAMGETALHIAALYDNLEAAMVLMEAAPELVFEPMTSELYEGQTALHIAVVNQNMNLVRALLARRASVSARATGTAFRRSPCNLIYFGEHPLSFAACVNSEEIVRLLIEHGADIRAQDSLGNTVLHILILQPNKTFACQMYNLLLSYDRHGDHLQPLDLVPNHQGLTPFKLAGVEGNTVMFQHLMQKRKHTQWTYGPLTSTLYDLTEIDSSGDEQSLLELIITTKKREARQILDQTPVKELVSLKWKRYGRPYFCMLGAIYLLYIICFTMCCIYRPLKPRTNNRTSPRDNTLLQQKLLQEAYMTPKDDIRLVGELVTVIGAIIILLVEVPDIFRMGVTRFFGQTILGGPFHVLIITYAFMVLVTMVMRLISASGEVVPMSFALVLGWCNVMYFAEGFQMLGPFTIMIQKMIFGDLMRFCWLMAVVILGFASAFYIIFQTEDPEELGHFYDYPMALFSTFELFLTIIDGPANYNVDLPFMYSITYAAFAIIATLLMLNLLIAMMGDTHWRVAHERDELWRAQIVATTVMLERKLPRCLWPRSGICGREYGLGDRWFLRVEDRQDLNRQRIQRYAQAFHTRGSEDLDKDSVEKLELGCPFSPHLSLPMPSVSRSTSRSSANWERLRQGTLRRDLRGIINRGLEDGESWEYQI

[2] = molecular target: hTRPV6-R470E (human); assay: cryo-EM structure
[3] = molecular target: rTRPV6* (rat TRPV6 construct previously used for crystallographic studies) (rat); assay: cryo-EM structure

IC50 [1]: 85 ± 5 µM
Compound: NCCOB(c1ccccc1)c1ccccc1 [2-APB]

stoichiometry N [2]: 4
Compound: hTRPV6-R470E (natural protein)

stoichiometry N [3]: 4
Compound: rTRPV6* (rat TRPV6 construct previously used for crystallographic studies) (natural protein)
